Source: publication PMC5526940 (Scientific Reports, 2017)

B1: Phaseolus vulgaris erythroagglutinin (natural protein)
chain: ASQTSFSFQRFNETNLILQRDATVSSKGQLRLTNVNDNGEPTLSSLGRAFYSAPIQIWDNTTGAVAASPTSFTFNIDVPNNSGPADGLAFVLLPVGSQPKDKGGLLGLFNNYKYDSNAHTVAVEFDTLYNVHWDPKPRHIGIDVNSIKSIKTTTWDFVKGENAEVLITYDSSTKLLVASLVYPSLKTSFIVSDTVDLKSVLPEWVIVGFTATTGITKGNVETNDILSWSFASKLSDGTTSEALNLANFALNQIL
modifications: TRITC label
notes: Phaseolus vulgaris erythroagglutinin; also called PHA-E; source: bought: EY Laboratories or Vector Laboratories (TRITC-labelled)

Assays:
Assay in all cases: peptide or protein array
Settings in all cases: both partners purified
[1] = target: T1, chicken egg white ovalbumin (chicken, UniProt P01012 1-386)
T1 construct: Printed on the microarray at 0.5 mg/mL; source: bought: Sigma-Aldrich
T1 sequence (looked up): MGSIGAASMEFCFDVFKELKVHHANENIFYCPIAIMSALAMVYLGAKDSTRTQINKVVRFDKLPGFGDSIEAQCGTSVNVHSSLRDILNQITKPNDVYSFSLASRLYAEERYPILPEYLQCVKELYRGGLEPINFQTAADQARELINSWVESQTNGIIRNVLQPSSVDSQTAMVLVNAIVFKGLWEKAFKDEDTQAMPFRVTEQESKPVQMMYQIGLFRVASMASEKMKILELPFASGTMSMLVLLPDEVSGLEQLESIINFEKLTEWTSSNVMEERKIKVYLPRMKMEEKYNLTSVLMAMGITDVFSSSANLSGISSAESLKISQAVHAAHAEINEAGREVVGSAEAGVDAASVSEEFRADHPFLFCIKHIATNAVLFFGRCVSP

[2] = target: B1
[3] = target: T2, Phaseolus vulgaris leucoagglutinin (Phaseolus vulgaris, UniProt P05087 21-272, TRITC label)
T2 construct: Phaseolus vulgaris leucoagglutinin; also called PHA-L; source: bought: EY Laboratories or Vector Laboratories (TRITC-labelled)
T2 sequence: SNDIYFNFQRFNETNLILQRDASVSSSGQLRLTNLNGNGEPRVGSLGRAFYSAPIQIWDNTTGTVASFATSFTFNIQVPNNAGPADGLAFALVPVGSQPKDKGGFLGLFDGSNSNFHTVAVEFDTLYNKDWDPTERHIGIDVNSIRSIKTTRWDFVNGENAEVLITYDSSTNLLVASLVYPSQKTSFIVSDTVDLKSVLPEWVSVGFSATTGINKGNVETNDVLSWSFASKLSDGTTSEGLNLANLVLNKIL

Does B1 bind [1]?
Result: binds

B2: chicken egg white ovomucoid (natural protein, UniProt P01005 25-210, looked up)
chain: AEVDCSRFPNATDKEGKDVLVCNKDLRPICGTDGVTYTNDCLLCAYSIEFGTNISKEHDGECKETVPMNCSSYANTTSEDGKVMVLCNRAFNPVCGTDGVTYDNECLLCAHKVEQGASVDKRHDGGCRKELAAVSVDCSEYPKPDCTAEDRPLCGSDNKTYGNKCNFCNAVVESNGTLTLSHFGKC
notes: Printed on the microarray at 0.5 mg/mL; also called OVM; source: bought: Sigma-Aldrich
Which results are given for B2?
binding result [2]: binds; binding result [3]: binds
